Data on one substance can be found in US20260256782.

This series deals with ZF3-KRAB (MR-32054 bicistronic component) (synthetic construct). Kind of series: cell_activity. Conditions: 48 h, 0.5 ug/ml, combined effect with ZF9-MQ1, binding not measured directly.
ZF3-KRAB (MR-32054 bicistronic component) (synthetic construct), sequence (chain, as listed by the source): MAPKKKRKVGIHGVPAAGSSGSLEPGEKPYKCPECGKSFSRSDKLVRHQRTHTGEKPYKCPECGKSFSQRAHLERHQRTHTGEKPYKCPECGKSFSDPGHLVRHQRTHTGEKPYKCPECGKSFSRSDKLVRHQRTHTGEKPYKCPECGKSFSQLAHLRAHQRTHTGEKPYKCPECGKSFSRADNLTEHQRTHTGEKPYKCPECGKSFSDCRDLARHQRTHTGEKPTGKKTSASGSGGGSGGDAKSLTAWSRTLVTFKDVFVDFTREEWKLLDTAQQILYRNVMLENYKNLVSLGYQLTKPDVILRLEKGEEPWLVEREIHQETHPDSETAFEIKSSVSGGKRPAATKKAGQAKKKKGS

In the case of “MYC upstream anchor (CTCF) ZF3 target site”, the activity (% MYC protein reduction) reads like this: (H1975 cells) 30; (PC9 cells) 47.
